The MegaScale stability set (Tsuboyama et al. 2023)

B1: EHEE_rd4_0086 (parent)
chain: EIHIRTNGEEQARKVYKMLAKRNYDVKIEQHNGQWVVTAS

Variants of: B1
Test: folding stability dG (cDNA display proteolysis); higher = more stable
Settings: PBS, room temperature

Variant	folding stability dG
EIHIRTNGEEQARKVYKNLAKRNYDVKIEQHNGQWVVTAS [M18N]	1.14 kcal/mol
EIHIRTNGEEQARKVYKRLAKRNYDVKIEQHNGQWVVTAS [M18R]	1.25 kcal/mol
EIHIRTNGEEQARKVYKTLAKRNYDVKIEQHNGQWVVTAS [M18T]	1.12 kcal/mol
EIHIRTNGEEQMRKVYKMLAKRNYDVKIEQHNGQWVVTAS [A12M]	0.486 kcal/mol
EIHIRTNGEEQFRKVYKMLAKRNYDVKIEQHNGQWVVTAS [A12F]	-0.019 kcal/mol
EIHIRTNGEEQYRKVYKMLAKRNYDVKIEQHNGQWVVTAS [A12Y]	-0.25 kcal/mol
EIHIRTNGEEQRRKVYKMLAKRNYDVKIEQHNGQWVVTAS [A12R]	-0.218 kcal/mol
EIHIRTNGEEQARKVRKMLAKRNYDVKIEQHNGQWVVTAS [Y16R]	1.15 kcal/mol
EIHIRQNGEEQARKVYKMLAKRNYDVKIEQHNGQWVVTAS [T6Q]	0.309 kcal/mol
EIHIRHNGEEQARKVYKMLAKRNYDVKIEQHNGQWVVTAS [T6H]	0.847 kcal/mol
EIHIRTNGEEQARKVYMMLAKRNYDVKIEQHNGQWVVTAS [K17M]	2.15 kcal/mol
EIHIRTNGEEQARKVYWMLAKRNYDVKIEQHNGQWVVTAS [K17W]	2.11 kcal/mol
EIHIRTNGEEQARKVYRMLAKRNYDVKIEQHNGQWVVTAS [K17R]	2.02 kcal/mol
EIHIRTNGEEQARKVYKMLAKWNYDVKIEQHNGQWVVTAS [R22W]	2.29 kcal/mol
EIHIRTNGEEQARKVYKMLAKENYDVKIEQHNGQWVVTAS [R22E]	1.29 kcal/mol
EIHIRTNGEEQARKVYKMLAKYNYDVKIEQHNGQWVVTAS [R22Y]	2.05 kcal/mol
EIHIRTNGEEQARKVYKMLAKDNYDVKIEQHNGQWVVTAS [R22D]	1.08 kcal/mol
EIHIRTNGEEQARKVYKMLAKPNYDVKIEQHNGQWVVTAS [R22P]	-0.563 kcal/mol
EIHIRTNGEEQARKVYKMLAKRNYDVKIEQHNQQWVVTAS [G33Q]	0.937 kcal/mol
EIHIRTNGEEQARKVYKMLAKRNYDVKIEQHNYQWVVTAS [G33Y]	0.642 kcal/mol
EIHIRTNGEEQARKVYKMLAKRNYDVKIEQHNTQWVVTAS [G33T]	0.841 kcal/mol

Variant	folding stability dG
EIHIRTNGEEYARKVYKMLAKRNYDVKIEQHNGQWVVTAS [Q11Y]	2 kcal/mol
EIHIRTNGEEPARKVYKMLAKRNYDVKIEQHNGQWVVTAS [Q11P]	0.372 kcal/mol
EIHIRTNGEEVARKVYKMLAKRNYDVKIEQHNGQWVVTAS [Q11V]	1.61 kcal/mol
EIHIRTNGEEKARKVYKMLAKRNYDVKIEQHNGQWVVTAS [Q11K]	1.4 kcal/mol
EIHIRTNGEEMARKVYKMLAKRNYDVKIEQHNGQWVVTAS [Q11M]	1.95 kcal/mol
EIHIRTNGETQARKVYKMLAKRNYDVKIEQHNGQWVVTAS [E10T]	1.78 kcal/mol
EIHIRTNGEPQARKVYKMLAKRNYDVKIEQHNGQWVVTAS [E10P]	1.37 kcal/mol
EIHIRTNGERQARKVYKMLAKRNYDVKIEQHNGQWVVTAS [E10R]	2.17 kcal/mol
EIHIRTNGEAQARKVYKMLAKRNYDVKIEQHNGQWVVTAS [E10A]	2.22 kcal/mol
EIHIRTNGEHQARKVYKMLAKRNYDVKIEQHNGQWVVTAS [E10H]	1.58 kcal/mol
EIHIRTNGELQARKVYKMLAKRNYDVKIEQHNGQWVVTAS [E10L]	1.98 kcal/mol
EIHIRTNGEEQARKVYKMLAKRNYDVKIEQHNGQWVVTAQ [S40Q]	1.57 kcal/mol
EIHIRTNGEEQARKVYKMLAKRNYDVKIEQHNGQWVVTAP [S40P]	1.16 kcal/mol
EIHIRTNGEEQARKVYKMLAKRNYDVKIEQHNGQWVVTAK [S40K]	2.19 kcal/mol
EIHIRTNGEEQARKVYKMLAKRNYDVKIEQHNGQWVVTAH [S40H]	1.77 kcal/mol
EIHIRTNGEEQARKVYKMLAKRNYDVKIEQHNGQWVVTAM [S40M]	1.81 kcal/mol
EIHIRTNGEEQARKVYKMLAKRNYDVKIEQHNGAWVVTAS [Q34A]	1.77 kcal/mol
EIHIRTNGEEQARKVYKMLAKRNYDVKIEQHNGTWVVTAS [Q34T]	1.95 kcal/mol
EIHIRTNGEEQARKVYKMLAKRNYDVKIEQHNGSWVVTAS [Q34S]	1.67 kcal/mol
EIHIRTNGEEQARKVYKMLAKRNYDVKIEQHNGRWVVTAS [Q34R]	1.59 kcal/mol
EIHIRTNGEEQARKVYKMLAKRNYKVKIEQHNGQWVVTAS [D25K]	2.36 kcal/mol

Variant	folding stability dG
EIHIRTNGEEQARKVYKMLAKRNYRVKIEQHNGQWVVTAS [D25R]	2.25 kcal/mol
EIHIRTNGEEQARKVYKMLAKRNYMVKIEQHNGQWVVTAS [D25M]	2.21 kcal/mol
EIHIRTNGEEQARKVYKMLAKRNYFVKIEQHNGQWVVTAS [D25F]	2.14 kcal/mol
EIHIRTNGEEQARKVYKMLAKRNYLVKIEQHNGQWVVTAS [D25L]	2.21 kcal/mol
EIHIRTNGEEQARKVYKMLAKRNYSVKIEQHNGQWVVTAS [D25S]	1.99 kcal/mol
EIHIRTNGEEQARKVYKMLAKRNYQVKIEQHNGQWVVTAS [D25Q]	2.23 kcal/mol
EIHIRTNGEEQARKVYKMLAKRNYHVKIEQHNGQWVVTAS [D25H]	2.15 kcal/mol
EIHINTNGEEQARKVYKMLAKRNYDVKIEQHNGQWVVTAS [R5N]	1.18 kcal/mol
EIHIETNGEEQARKVYKMLAKRNYDVKIEQHNGQWVVTAS [R5E]	1.34 kcal/mol
EIHICTNGEEQARKVYKMLAKRNYDVKIEQHNGQWVVTAS [R5C]	2.85 kcal/mol
EIHIDTNGEEQARKVYKMLAKRNYDVKIEQHNGQWVVTAS [R5D]	0.471 kcal/mol
EIHIRTNGEEQATKVYKMLAKRNYDVKIEQHNGQWVVTAS [R13T]	1.18 kcal/mol
EIHIRTNGEEQALKVYKMLAKRNYDVKIEQHNGQWVVTAS [R13L]	1.89 kcal/mol
EIHIRTNGEEQAIKVYKMLAKRNYDVKIEQHNGQWVVTAS [R13I]	1.67 kcal/mol
EIHIRTNGEEQARKVYKMLAKRNYDVKIDQHNGQWVVTAS [E29D]	1.26 kcal/mol
EIHIRTNGEEQARKVYKMLAKRNYDVKIQQHNGQWVVTAS [E29Q]	1.82 kcal/mol
EIHIRTNGEEQARKVYKMLAKRNYDVKIYQHNGQWVVTAS [E29Y]	2.48 kcal/mol
EIHIRTNGEEQARKVYKMLAKRNYDVKISQHNGQWVVTAS [E29S]	1.99 kcal/mol
EIHIRTNGEEQARKVYKMLAKRNYDVKIWQHNGQWVVTAS [E29W]	2.33 kcal/mol
EIHIRTNGEEQARKVYKMLAKRNYDVKIAQHNGQWVVTAS [E29A]	1.8 kcal/mol
